The data set can be described thus: soluble on expression in E. coli; label from the status in PepcDB or PDB records.
Consider “MGSDKIHHHHHHVPNFLPINTILVPQGAEYKAVCRGLNGVTGSIPTVVAIPVGMKPLLKYLHQGQFLAPKSRVLIMGICGSLSDRYRVGDIVLYQDCIYQGKLLECDRTFTAQLHSSLSEKVSLVKSLTSDRMIWSAAEKLHLGETLAADVVDMEGFTALEFFNVGGVAVTMLRVVSDDCQHDIPDLTSAINSDGSLNPFSLAMAMLRQPLAATRLIRGSLTALKVLEQVTNMLFSGNRPE”, for which the “soluble on expression in E. coli” value is listed as “not soluble”. As for “MNKNSTSNKKNSKNKKKVDKLDLILNEFKNDIKNEKGENNQNDNKLLNGAIETNNNNNNNNNNSGNNRIHFDKEEIKEIKKKIILKEHVLEEQDNSSIRLLKNWPQLEKTYQTNPPCIPIDMIYGKDGKYPVGEILEYNNYNLSGQSLVEKKEREKLSIDYYEDLRKAAECHRQVRKHMQAFIKPGKKMIDIAQETERKTKELILAEKLKCGWGFPTGCSLNHCAAHYTPNYGDETVLKYDDVCKLDFGVHVNGYIIDCAFTIAFNEKYDNLIKATQDGTNTGIKEAGIDARMCDIGEAIQEAIESYEIELNQKIYPIKAISNLRGHSINKYIIHGGKCVPIVRQKEKNEIMEEGELFAIETFASTGKGYVNHENECSHYMRNPEKQFVPIRLNSAKTLLKVINDNFDTLPFCNRWLDDLGQTRHFMALKTLIDLNIVEPYPPLCDIKNSFTSQMEHTILLRPTCKEVLSRG”, the “soluble on expression in E. coli” value was “not soluble”. The entry for “MIFSKKDIQEVLPADVTGRSVAHPKRWLVALVRISHEKKTSERLSKMGIENFLPVQQEVHQWSDRRKVVERVLLPMMIFVHVDMYEQKEVLTLGSISRYMVLRGESTPAVIPDEQMHRFKFMLDYSDEAINMSTTPLSPGTKIKVIKGPLSGLQGELVTVNGKSKVAVRLTMLGCAFVDIPVGCVEPLEK” is “not soluble”; for “MIDIQGIKEALPHRYPMLLVDRVLEVSEDTIVAIKNVTINEPFFNGHFPQYPVMPGVVIMEALAQTAGVLELSKPENKGKLVFYAGMDKVKFKKQVVPGDQLVMTATFVKRRGTIAVVEAKAEVDGKLAASGTLTFAIGN” it is “soluble”; for “MAHHHHHHMSNNYFNNEAPPDNINNLSYDEGLEQQYNFTDNEEEIFSSFFSDNKKNICLPKSLREHMLIEYTAMFVNIEGDIAEFYLKLDNDVLIKFPFLHVDHPLHRYYEFVKLNTKKRLITKYPKIIPSPLKDLFQYVTDLENTKVINNEIKSKKLKEKQIEHVKNKKGNKQILMKQKENQSYSSLFMRYMQSDDEKSNSTVENDKNEEHNEDTLSNESMMEIDNIIKKLKDKKDKSSMQTARFYLQCIEKLKFLQYGTKQYKYFVQKLLYDQNRLNVNNSDIKVRQKIHSTDFLEFLLKTDEHKKSLDNVINEDIYEQQNSHETETERDDLQTMQDYRR” it is “not soluble”. The entry for “AMAELKEFLNKPAATSDVPPAPAGFDFDAAKKLVDVRCNKCHTLDSVADLFRTKYKKTGQVNLIVKRMQGFPGSGISDDDAKTIGIWLHEKF” is “soluble”; for “MSLTELSAFPITRKWPAKHPERLQLYSLPTPNGVKVSIMLEEIGLAYEAHKVSFDNDDQLSPEFISLSANNKIPAILDPNGPGGQPLALFESGAILQYLAEKSGQLLSQDPAQRYQTLQWLMFQMGGIGPMFGQVGFFHFFAGKEYEDKRPRDRYVNESKRLLGVLDRHLKGRQWMAEEYSIADIAIFPWVRNLVERYNARDLVGFDQFKEVQRVLANFLERPAVQRGLKIPGEGHHHHHH” it is “soluble”; for “MAHHHHHHMSNAEEETVKKKKKYRKDKPWDNENIDHWKVEKFTQEDNKHHFLEESSFKVLFPKYREKYLQQFSSDIKNVLNKHFIKFEIDLIEGYMCVKTTKKTFDPYIIIKSRDMISLLSRSVPFVHAKRVLEDETYCDIIKISGYVRNKNKFIKRRQRLLGSNATTLKALEILTNCYICIHGKTVSVIGHFKSLKVVRRIIIDCMKNIHPVYHIKELIAKRELEKNEEFKNENWEKFLPNFKKRNVQRKKIKEKLDKKKKKNKSVFPPDQLPRKIDIQMETGEYFLNNQKNKKKDKTQDKQQKGND” it is “not soluble”. With “MSKNRDPLLANLNAFKSKVKSAPVIAPAKVGQKKTNDTVITIDGNTRKRTASERAQENTLNSAKNPVLVDIKKEAGSNSSNAISLDDDDDDEDFGSSPSKKVRPGSIAAAALQANQTDISKSHDSSKLLWATEYIQKKGKPVLVNELLDYLSMKKDDKVIELLKKLDRIEFDPKKGTFKYLSTYDVHSPSELLKLLRSQVTFKGISCKDLKDGWPQCDETINQLEEDSKILVLRTKKDKTPRYVWYNSGGNLKCIDEEFVKMWENVQLPQFAELPRKLQDLGLKPASVDPATIKRQTKRVEVKKKRQRKGKITNTHMTGILKDYSHRV”, the “soluble on expression in E. coli” value is listed as “soluble”. With “MSVVKSIELVLPEDRIYLAGSSIKGQVILTLNSTLVDPIVKVELVGRGYVEWSEEAGASCDYSRNVICNNKADYVHKTKTFPVEDNWLSAGSHTFDFHFNLPPRLPSTFTSKFGHVFYFVQASCMGREHILAKKRMYLLVQGTSTFHKETPFQNPLFVEAEEKVSYNCCRQGTVCLQIQMERNTFTPGEKVVFTTEINNQTSKCIKTVVFALYAHIQYEGFTPSAERRSRLDSSELLRQEANTPVTRFNTTKVVSTFNLPLLLSVSSSTQDGEIMHTRYELVTTVHLPWSLTSLKAKVPIIITSASVDSAICQLSEDGVLPVNPDHQN”, the “soluble on expression in E. coli” value was “soluble”. Consider “MGHHHHHHSHMASGSNWLSGVNVVLVMAYGSLDLKEEIDIRLSRVQDIKYEPQLLADDDARLLQLETQGNQKIPFHSEGRHPRSLMGKNFRSYLLDLRNTSTPFKGVRKALIDTLLDGYETARYGTGVFGQNEYLRYQEALSELATAVKARIGSSQRHHQSAAKDLTQSPEVSPTTIQVTYLPSSQKSKRAKHFLELKSFKDNYNTLESTL”, for which the “soluble on expression in E. coli” value is “not soluble”. The entry for “MSLKAANRYVAGEKRSDGLAIARKLQAKGYGISLENIGENTKLLAQCREAKMEFDQLIEDVGAIAPGQTVSFDLSHIGLSYQFDTAYGHLIELAEKANEHEVTLMISMEESTKTDQILAVYRQAAELYSNIGITLQAHLFRTPDDLRKLVQLPGKIRIVKGAYQEPSHLAMERSDYLNNRYLELVDHLVSTNHPVSVATHDQKLLEEMERRQFLQSTDVEIEMLYGIQPSQLKLFKEKGYQTRVYLTYGHEWFLYLCHRLAEYPENIYTALIDIINPSLPKVDDMYEGHHHHHH” is “not soluble”; for “MWLRDPFPRLYPDGDFQMACDRFFGNPYDSDNWVNGGFTYVRSNNRSIEFYKFWHKSRLDYPDLHDQDVFNRIKHEPFISEIGIQMRFFDTVYFGGFCQTSRDINLVCTMHANCCIGLDKKLHDLNLVLDDWRKYLSLSEPVQNTTWSVPMKCLED” it is “not soluble”. The entry for “MGSDKIHHHHHHMKIDRSVIRSLALFAKMADDELDGLLTHATSRLVPPGEAIFEQGQSAAHFFLLIHGRLKVTQVTHDGQQIIVRMVHPGDLFGFARALQRSDYPGTATTAAESVILSWQTDLWPQFVEQNPHLAVSAMQTIGQRLEEAHTRIREMSTQEVERRVAHAVLRLSQQAGRKELDGIRIDFPISRQDIAEMTGTTLHTVSRILSSWESKGLVQGGRQKLLVCNLPGLAQLAEGETSQV” is “not soluble”. The entry for “MLEIKGLRARIVGTNTEVIRGLNLTVADGEVAAIMGQNGAGKSTLSYLLAGRDDYEVIDGDILYNGQSLLEMDPAERAAYGVFLAFQYPMEIPGVATMEFLKVAMNSQRKARGDQELKIPEFIKCVKEISSKLEINMDMLKRPLNVGFSGGEKKRAEILQMALLEPKLCILDETDSGLDIDALKIVADGVNKLRDPKRSFLVITHYQRLLNYIIPDTVHVLYKGRIIKSGDKSLALYLEQNGYADLIREAA” is “not soluble”; for “MRVISGEYGGRRLKALDGDNTRPTTDKVKESIFNMIGPYFDGGMALDLYSGSGGLAIEAVSRGMDKSICIEKNFAALKVIKENIAITKEPEKFEVRKMDANRALEQFYEEKLQFDLVLLDPPYAKQEIVSQLEKMLERQLLTNEAVIVCETDKTVKLPETIGTLKKTRETVYGITQVTIYRQEA” it is “soluble”; for “MMICGVFCMYKERKRMTKKELALEYHKKGYNCTQAVACAFCGEFGVSEEEMYKIAEGFGLGMGMMDTCGALTGLFMLIGMKNSGGVEQAGKTKADTYKKTREYAAKFKEINGSVYCKELKGVETGKILAPCDKCILDAVELAEQFLKEN” it is “not soluble”.

As to “MATKTKTTEAPVLPLNQILAGDCIETMRSLPECSVDLIFADPPYNLQLRGDLHRPDNSRVDAVDDHWDQFSSFSVYDQFTREWLAAARRLLKPNGAIWVIGSYHNIFRVGAALQDQGFWILNDVVWRKSNPMPNFKGKRLTNAHETLIWASKQEASKYTFNYEALKALNEGVQMRSDWVIPICTGHERLKDEQGDKAHPTQKPEALLHRVMVATTNPGDVVLDPFFGTGTTGAVAKMLGRDFIGIEREESYRRIAAERLSRVRRYDASALEVSGSKRAEPRVPFGQLVERGMLRPGEELYSMNNRHKAKVRADGTLIGNDVKGSIHQVGAALEGAPSCNGWTYWCYKREGKMIPIDILRQQIRAEMEDPRPN”, the “soluble on expression in E. coli” value is “not soluble”. In the case of “MLLRKFCGIEKTDNGYLIHGDAGDIKLVFMTDDIIRIRVSFDRKFKEASYALVTTAWEDELDELFQEERTRIQAKDVVCEEKEDALIFHTTALKLVMKKQPIQFLLYDVEGKLIYNDLKERAFDQDQLGRVTHYSEIHADTDHFYGFGEKTGHLDKKGRHLRMSPKDAIGADPEFGEPLYKHVPFYIRVNEENLHALGLFYNNSYDAVFDMGNERSGYWDSYCYYQADGGDIDLFLINGPKMASVLERYTYLTGRQAMPTKQSLGYTASTMYYAELEQNCDEEIYKVIQKHFDEKIYIDNFWLASGYSSGEEDNLRYVFNWNKKRFPDPEGFFEKMEQEMGINVIPNMKPGILKNHPYRKVFEQYDAFVKTPDKAEDYVGRWWGGEGRFVDFTKKAGRDAWKELLKKNLMAKGMRTVWNDNCEYDGVEDRNAYCDHEGMGGTMAELKIIQSNMMAYTGKEALKEVYPKARPYIINRAGYAGIQRYAQVWAGDNLTDWRTVKFNIATIMGMGLSGMSNAGCDIGGFAGPAPGGELLLRWIQNGIFQPRFCINSANNDNTVTQPWMYEENLPYVQAAYAQRYRMIPYLYSVMRESHENGMPVMRPLFLEFPEDVKCYRDQNLTFMFGPSVLVANVVEKGAITRTIYLPKGTTWYDMNDNFKAYEGGQTIELPVDLSSIPMFLRGSAVYMTTEDIHHIAKDTMKALDLFVSCEEDAEFTYYDDDGWSKEYEEGNFAETKISVKAGDRKQIHFHKNGFYQESWENLNLNVVSKEKGAYWVSVDGEKIPRFLIRDAFDEAETGWYYDMSDRIVKVKCKKPQKDDFEIVVSCEKFDLIGMENEI”, the “soluble on expression in E. coli” value was “not soluble”. Regarding “MRMNSQWGFKMKILIMGFEYLPVKVGGLAEALTSIAEALASLGHEVLVFTPSHGRFQGSEIGIIKAFGGKVAIKVHLEENGNLRIYRIGGGLLDHQDVYGPGWEGLIRKTVIFGKASVLLLNELLKSEDLPDVLHFHDWHTVFAGALIKKYFRIPAVFTIHRLNKSKIPAFYFHEAGLPELAPYPDLDPEHTGGYIADIVTTVSRGYLLDEWDFFRNFNGKVTYVFNGIDCSFWNENYLKGSRKERRSSILAKFGMSDGITFMFIGRFDRRQKGVDTLLRAIELLSERPEFKEMRFIIIGMGDPELENWARELEKRYDNVRVLTEMLSREFVRELYGSVDFVIIPSYFEPFGLVSLEAMCLGAIPIASSVGGLRDVIVSIDEDHVDGTGLLVKPGDPWDLANAILRMHSIAMDNEFVEKLRDNCKKRAKSFSWENSAKRYLRAYKGNIDRIFDFAMLEHHHHHH”, the “soluble on expression in E. coli” value is “not soluble”.

For the origin of these results see the DeepSol protein solubility set.
